Test results from patent US20210275641A1 (SYNTHEKINE, published 2021).

T1: human high affinity trimeric IL-2 receptor (CD25/CD122/CD132) (human, UniProt P01589 22-272; P14784 27-551; P31785 23-369)
T1 sequence 1: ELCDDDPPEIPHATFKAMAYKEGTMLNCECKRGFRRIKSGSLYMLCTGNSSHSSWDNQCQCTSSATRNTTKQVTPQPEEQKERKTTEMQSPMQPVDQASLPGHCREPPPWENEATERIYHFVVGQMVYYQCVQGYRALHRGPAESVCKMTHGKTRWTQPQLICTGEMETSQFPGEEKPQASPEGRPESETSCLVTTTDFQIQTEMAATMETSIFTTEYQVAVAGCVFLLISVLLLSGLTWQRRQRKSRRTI
T1 sequence 2: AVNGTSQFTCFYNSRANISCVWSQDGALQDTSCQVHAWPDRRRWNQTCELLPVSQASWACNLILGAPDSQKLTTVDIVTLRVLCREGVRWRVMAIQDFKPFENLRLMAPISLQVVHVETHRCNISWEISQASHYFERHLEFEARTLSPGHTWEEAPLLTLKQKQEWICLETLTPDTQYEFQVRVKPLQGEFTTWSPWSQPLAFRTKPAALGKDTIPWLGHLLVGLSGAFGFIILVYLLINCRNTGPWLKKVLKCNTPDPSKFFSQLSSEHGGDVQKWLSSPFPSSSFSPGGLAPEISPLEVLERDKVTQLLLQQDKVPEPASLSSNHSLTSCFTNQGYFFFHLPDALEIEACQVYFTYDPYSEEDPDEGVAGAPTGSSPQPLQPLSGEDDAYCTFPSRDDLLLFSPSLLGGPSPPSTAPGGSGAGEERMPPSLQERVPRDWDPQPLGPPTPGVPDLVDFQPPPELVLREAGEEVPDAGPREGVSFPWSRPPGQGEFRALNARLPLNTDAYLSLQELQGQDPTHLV
T1 sequence 3: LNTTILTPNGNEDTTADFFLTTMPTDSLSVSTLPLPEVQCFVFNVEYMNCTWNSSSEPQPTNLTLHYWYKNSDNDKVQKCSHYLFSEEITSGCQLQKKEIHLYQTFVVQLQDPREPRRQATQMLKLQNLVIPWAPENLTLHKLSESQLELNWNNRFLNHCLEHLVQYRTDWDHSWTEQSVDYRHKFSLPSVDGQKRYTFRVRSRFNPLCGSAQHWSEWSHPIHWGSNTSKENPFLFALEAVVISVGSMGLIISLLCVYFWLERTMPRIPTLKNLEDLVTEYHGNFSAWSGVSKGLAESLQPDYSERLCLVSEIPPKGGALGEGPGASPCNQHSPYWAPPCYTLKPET

T2: IL-2 receptor of the human CD4 positive T cell clone 3F8 (expresses CD25 and CD122) (human, UniProt P01589 22-272; P14784 27-551)
T2 sequence 1: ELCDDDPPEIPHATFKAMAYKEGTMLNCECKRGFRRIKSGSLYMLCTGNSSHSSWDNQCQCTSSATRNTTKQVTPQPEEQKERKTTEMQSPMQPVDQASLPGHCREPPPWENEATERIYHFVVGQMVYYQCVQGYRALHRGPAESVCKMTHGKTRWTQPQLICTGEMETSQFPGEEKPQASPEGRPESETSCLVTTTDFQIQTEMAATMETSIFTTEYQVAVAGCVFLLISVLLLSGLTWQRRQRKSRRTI
T2 sequence 2: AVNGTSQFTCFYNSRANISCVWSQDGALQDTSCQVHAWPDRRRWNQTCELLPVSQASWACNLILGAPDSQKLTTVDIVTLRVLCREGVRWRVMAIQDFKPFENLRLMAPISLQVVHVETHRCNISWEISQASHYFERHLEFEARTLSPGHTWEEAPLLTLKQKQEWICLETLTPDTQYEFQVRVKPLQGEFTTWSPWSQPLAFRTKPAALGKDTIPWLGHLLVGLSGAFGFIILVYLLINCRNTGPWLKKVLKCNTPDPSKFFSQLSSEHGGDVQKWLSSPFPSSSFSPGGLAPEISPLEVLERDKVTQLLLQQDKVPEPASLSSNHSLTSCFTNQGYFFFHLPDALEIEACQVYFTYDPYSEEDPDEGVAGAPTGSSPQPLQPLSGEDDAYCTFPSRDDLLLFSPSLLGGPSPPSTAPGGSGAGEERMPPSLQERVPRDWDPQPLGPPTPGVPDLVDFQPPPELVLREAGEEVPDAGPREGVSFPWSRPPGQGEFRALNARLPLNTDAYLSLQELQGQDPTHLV


Columns and labels:
Assay in all cases: cell-based or functional assay
[1] = target: T1, human high affinity trimeric IL-2 …
[2] = target: T2, IL-2 receptor of the human CD4 positive …
[3] = target: T1, human high affinity trimeric IL-2 …; remark: listed apart in the source

| Binder | IFNγ Production IC50 (pM), 3F8 cells [2] [pM] | Proliferation IC50 (pM), 3F8 cells [2] [pM] | also measured |
| --- | --- | --- | --- |
| STK-012 (N-terminally 40 kD PEGylated des-Ala1 REK hIL2 mutein, STK-011) (ligand, N-terminal proline conjugated to a 40 kd (20 kD x 2 arm) branched PEG moiety via a linker) PTSSSTKKTQLQLEHLRLDLEMILNGINNYKNPKLTRMLTFKFYMPKKATELKHLQCLEEELKPLEEVLNLAQSKNFHLRPRDLISNINVIVLELKGSETTFMCEYADETATIVEFLNRWITFCKSIISTLT |  |  | EC50 (read off the curve) [1]: ~8 pM |
| hIL2 mutein AEK (L18A, Q22E, Q126K) (ligand) APTSSSTKKTQLQLEHLALDLEMILNGINNYKNPKLTRMLTFKFYMPKKATELKHLQCLEEELKPLEEVLNLAQSKNFHLRPRDLISNINVIVLELKGSETTFMCEYADETATIVEFLNRWITFCKSIISTLT | 19 | 13.7 |  |
| hIL2 mutein VEK (L18V, Q22E, Q126K) (ligand) APTSSSTKKTQLQLEHLVLDLEMILNGINNYKNPKLTRMLTFKFYMPKKATELKHLQCLEEELKPLEEVLNLAQSKNFHLRPRDLISNINVIVLELKGSETTFMCEYADETATIVEFLNRWITFCKSIISTLT | 4.6 | 15.5 |  |
| hIL2 mutein IEK (L18I, Q22E, Q126K) (ligand) APTSSSTKKTQLQLEHLILDLEMILNGINNYKNPKLTRMLTFKFYMPKKATELKHLQCLEEELKPLEEVLNLAQSKNFHLRPRDLISNINVIVLELKGSETTFMCEYADETATIVEFLNRWITFCKSIISTLT | 8.8 | 10 |  |
| hIL2 mutein REM (L18R, Q22E, Q126M) (ligand) APTSSSTKKTQLQLEHLRLDLEMILNGINNYKNPKLTRMLTFKFYMPKKATELKHLQCLEEELKPLEEVLNLAQSKNFHLRPRDLISNINVIVLELKGSETTFMCEYADETATIVEFLNRWITFCMSIISTLT | 12.7 | 32.6 |  |
| hIL2 mutein REK (L18R, Q22E, Q126K) (ligand) APTSSSTKKTQLQLEHLRLDLEMILNGINNYKNPKLTRMLTFKFYMPKKATELKHLQCLEEELKPLEEVLNLAQSKNFHLRPRDLISNINVIVLELKGSETTFMCEYADETATIVEFLNRWITFCKSIISTLT | 17.7 | 14.2 | pSTAT5 ratio YT CD25/YT, dilution factor 2, upper table [3]: 1.1; pSTAT5 ratio YT CD25/YT, dilution factor 4, upper table [3]: 1.6; pSTAT5 ratio YT CD25/YT, dilution factor 8, upper table [3]: 2.6; pSTAT5 ratio YT CD25/YT, dilution factor 16, upper table [3]: 4.8; pSTAT5 ratio YT CD25/YT, dilution factor 32, upper table [3]: 7.7; pSTAT5 ratio YT CD25/YT, dilution factor 64, upper table [3]: 11.8; pSTAT5 ratio YT CD25/YT, dilution factor 128, upper table [3]: 13.1 |

More lines, main results first:

| IFNγ Production IC50 (pM), 3F8 cells [2] [pM] | Proliferation IC50 (pM), 3F8 cells [2] [pM] | Binder | also measured |
| --- | --- | --- | --- |
| 13.1 | 13.1 | hIL2 mutein RER (L18R, Q22E, Q126R) (ligand) APTSSSTKKTQLQLEHLRLDLEMILNGINNYKNPKLTRMLTFKFYMPKKATELKHLQCLEEELKPLEEVLNLAQSKNFHLRPRDLISNINVIVLELKGSETTFMCEYADETATIVEFLNRWITFCRSIISTLT |  |
| 18.4 | 33 | hIL2 mutein REE (L18R, Q22E, Q126E) (ligand) APTSSSTKKTQLQLEHLRLDLEMILNGINNYKNPKLTRMLTFKFYMPKKATELKHLQCLEEELKPLEEVLNLAQSKNFHLRPRDLISNINVIVLELKGSETTFMCEYADETATIVEFLNRWITFCESIISTLT | pSTAT5 ratio YT CD25/YT, dilution factor 2, upper table [3]: 1.4; pSTAT5 ratio YT CD25/YT, dilution factor 4, upper table [3]: 2.9; pSTAT5 ratio YT CD25/YT, dilution factor 8, upper table [3]: 5.9; pSTAT5 ratio YT CD25/YT, dilution factor 16, upper table [3]: 10.1; pSTAT5 ratio YT CD25/YT, dilution factor 32, upper table [3]: 13.5; pSTAT5 ratio YT CD25/YT, dilution factor 64, upper table [3]: 15.3; pSTAT5 ratio YT CD25/YT, dilution factor 128, upper table [3]: 16.8 |
| 30.4 | 20.9 | hIL2 mutein HEK (L18H, Q22E, Q126K) (ligand) APTSSSTKKTQLQLEHLHLDLEMILNGINNYKNPKLTRMLTFKFYMPKKATELKHLQCLEEELKPLEEVLNLAQSKNFHLRPRDLISNINVIVLELKGSETTFMCEYADETATIVEFLNRWITFCKSIISTLT |  |
| 58.7 | 36 | hIL2 mutein EEK (L18E, Q22E, Q126K) (ligand) APTSSSTKKTQLQLEHLELDLEMILNGINNYKNPKLTRMLTFKFYMPKKATELKHLQCLEEELKPLEEVLNLAQSKNFHLRPRDLISNINVIVLELKGSETTFMCEYADETATIVEFLNRWITFCKSIISTLT |  |
|  | 62.8 | hIL2 mutein RTK (L18R, Q22T, Q126K) (ligand) APTSSSTKKTQLQLEHLRLDLTMILNGINNYKNPKLTRMLTFKFYMPKKATELKHLQCLEEELKPLEEVLNLAQSKNFHLRPRDLISNINVIVLELKGSETTFMCEYADETATIVEFLNRWITFCKSIISTLT |  |
| 22.1 | 19.3 | hIL2 mutein REY (L18R, Q22E, Q126Y) (ligand) APTSSSTKKTQLQLEHLRLDLEMILNGINNYKNPKLTRMLTFKFYMPKKATELKHLQCLEEELKPLEEVLNLAQSKNFHLRPRDLISNINVIVLELKGSETTFMCEYADETATIVEFLNRWITFCYSIISTLT |  |
